Assay: yeast display, Sf9 membrane polyspecificity reagent, FACS + sequencing; frameworks hold sequencing errors
Procedure, shortened: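 Synthetic nanobody libraries on Saccharomyces cerevisiae BJ5465 were galactose-induced for 36–48 hours, stained 1 hour at 4 °C with 10% biotinylated, detergent-solubilized Sf9 membrane reagent and enriched on streptavidin microbeads. FACS then separated cells into low and high (top ~1%) gates by anti-HA (expression) and streptavidin (reagent binding) fluorescence. Genes were colony-PCR amplified, MiSeq 2 × 250 sequenced and CDR-length filtered. A clone's polyreactivity label is that of its gate of origin.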

Row | Sequence | polyreactivity (PSR sort gate)
1 | QVQLVESGGGLVQAGGSLRLSCAASGIIFRLNAMGWYRQAPGKERELVAAMRRRGGSTYYADSVKGRFTISRDNAKNTVYLQMNSLKPEDTAVYYCAKDPVTTFYKYDYWGQGTQVTVSS | low polyreactivity
2 | QVQLVESGGGLVQAGGSLRLSCAASGIIFRLNAMGWYRQAPGKVRELVAAIRRRGGSTYYADSVKGRFTISRDNAKNTVYLQMNSLKPEDTAVYYCAKDPHGSDFGYWGQGTQVTVSS | low polyreactivity
3 | QVQLVESGGGLVQAGGSLRLSCAASGIIFRNYAMGWYRQAPGKEREFVAAISYRGGTTYYADSVKGRFTISRDNAKNTVYLQMNSLKPEDTAVYYCAAPYYLQQSRYYYWGQGTQVTVSS | high polyreactivity
4 | QVQLVESGGGLVQAGGSLRLSCAASGIIFRNYAMGWYRQAPGKERELVAAISSNGGSTYYADSVKGRFTISRDNAKNTVYLQMNSLKPEDTAVYYCAARHSLYGYWGQGTQVTVSS | high polyreactivity
5 | QVQLVESGGGLVQAGGSLRLSCAASGIIFRPYAMGWYRQAPGKERELVAAITWSGTSTYYADSVKGRFTISRDNAKNTVYLQMNSLKPEDTAVYYCAARNVFQSVHLRGGYWGQGTQVTVSS | high polyreactivity
6 | QVQLVESGGGLVQAGGSLRLSCAASGIIFRRYAMGWYRPEPGLVRELVAAISASGVRTYYADSVKGRFTISRDNAKNTVYFQMNSLKPEDTAVYYCAAATKRVEYEYWGQGTQVTVSS | high polyreactivity
7 | QVQLVESGGGLVQAGGSLRLSCAASGIIFRRYAMGWYRQAPGKEREFVAAIRYTGGGTYYADSVKGRFTISRDNAKNTVYLQMNSLKPEDTAVYYCAARDRDTRNYYWGQGTQVTVSS | high polyreactivity
8 | QVQLVESGGGLVQAGGSLRLSCAASGIIFRSYAMGWYRQAPGKERELVAGITRVGSTYYADSVKGRFTISRDNAKNTVYLQMHSLKPEDTAVYYCNAYNYWSDDYWGQGTQVTVSS | high polyreactivity
9 | QVQLVESGGGLVQAGGSLRLSCAASGIIFRSYTMGWYRQAPGKERELVASITRSGGITYYADSVKGRFTISRDNAKNTVYLQMNSLKPEDTAVYYCSARHRYYSYSGYDYWGQGTQVTVSS | high polyreactivity
10 | QVQLVESGGGLVQAGGSLRLSCAASGIIFRTNAMGWYRKAPGKEREFVAAISAGGTRTYYADSVKGRFTISRDNAKNTVYLQMNSLKPEDTAVYYCAAASGYDYWGQGTQVTVSS | high polyreactivity
11 | QVQLVESGGGLVQAGGSLRLSCAASGIIFRYNTMGWYRQAPGKERELVAAITRSGGSTYYADSVKGRFTISRDNAKNTVYLQMNSLKPEDTAVYYCAAQGYSYRHTAFEYWGQGTQVTVSS | high polyreactivity
12 | QVQLVESGGGLVQAGGSLRLSCAASGIIFRYYAMGWYRQAPGKERELVARITSRAGRTYYADSVKGRFTISRDYAKYTVYLQMNSLKPEDTAVYYCAARLYGRYGYWGQGTQVTVSS | high polyreactivity
13 | QVQLVESGGGLVQAGGSLRLSCAASGIIFRYYTMGWYRQAPGTERELVAAITSGGSTNYADSVKGRFTISRDNAKNTVYLQMNSLKPEDTAVYYCRQFSVWGYDYWGQGTQVTVSS | high polyreactivity
14 | QVQLVESGGGLVQAGGSLRLSCAASGIIFSFYAMGWYRKAPGKERELVAAISQSGGSTYYADSVKGRFTISRDNAKNTVYLQMNSLKPEDTAVYYCAVAGWYGSEYWGQGTQVTVSS | high polyreactivity
15 | QVQLVESGGGLVQAGGSLRLSCAASGIIFSFYAMGWYRQAPGKERELVAAISRSGGSTYYADSVKGRFTISRDNAKNTVYLQMNSLKPEDTAVYYCNADNGASYYYRRYDSWGQGTQVTVSS | high polyreactivity
16 | QVQLVESGGGLVQAGGSLRLSCAASGIIFSGYARGWSRQAPGKERELVAVISSSGGGTYYADSVKGRFTISRDNAKNTVYLHMNSLKPEDTAVYYCAARGREAIHGYWGQGTQVTVSS | high polyreactivity
17 | QVQLVESGGGLVQAGGSLRLSCAASGIIFSRYAMGWYRQAPGKERELVAAISSSGGTTYYADSVKGRFTISRDNAKNTVYLQMNSLKPEDTAVYYCYAPAFYKYKSFYAHSGYDYWGQGTQVTVSS | high polyreactivity
18 | QVQLVESGGGLVQAGGSLRLSCAASGIIFSSNAMGWYRQAPGKERELVAAISRRGGSTSYADSVKGRFTISRDNAKNTVYLQINSLKPEDTAVYYCAARYVYPGEDYWGQGTQVTVSS | high polyreactivity
19 | QVQLVESGGGLVQAGGSLRLSCAASGIIFSSNAMGWYRQAPGKERELVAAITRRGGSTRYADSVKGRFTISRDNAKNTVYLQMNSLKPEDTAVYYCNALTGYPYRWGISYPMDYWGQGTQVTVSS | high polyreactivity
20 | QVQLVESGGGLVQAGGSLRLSCAASGIIFSSSAMGWYRQAPGKEREVVAAITSCGNTNYADSVKGRFTISRDNAKNTVYLQMNSLNPEDTAVYYCNAETSFVWLAWHPYGFGDWGQGTQVTVSS | low polyreactivity
21 | QVQLVESGGGLVQAGGSLRLSCAASGIIFSTNAMGWYRQAPGKERELVAAISWDGSSTYYADSVKGRFTISRDNAKNTVYLQMNSLKPEDTAVYYCAADQSTVLDVGSWGQGTQVTVSS | low polyreactivity
22 | QVQLVESGGGLVQAGGSLRLSCAASGIIFSWYAMGWYRQAPGKERELVASITASGGSTYYADSVKGRFTISRDTAKNTVSFQMHSLKPEDTAVYYCAVRYGHRSFASVYVEYDYWGQGTQVTVSS | low polyreactivity

Row | Sequence | polyreactivity (PSR sort gate)
23 | QVQLVESGGGLVQAGGSLRLSCAASGIIFSYNVMGWYRQAPGKEREFVADITWNGGSTYYADSVKGRFTISRDNAKNTVYLQMNSLKPEDTAVYYCATGWPWYSNYASAYDYWGQGTQVTVSS | low polyreactivity
24 | QVQLVESGGGLVQAGGSLRLSCAASGIIFSYYARGWYRQAPGKDRELVAAISSSGVSTNYADSVKGRFTISRDNAKNTVYLQMTSLKPEDTAVYYCAADYGSWSNWGYEYWGQGTQVTVSS | high polyreactivity
25 | QVQLVESGGGLVQAGGSLRLSCAASGIIFTDNAMGWSRQAPGKERELVAAISCRGGSTYYADSVKGRFTISRDNAKNTVYLQMNSLKPEDTAVYYCARYGTDHRLGYGYWGQGTQVTVSS | low polyreactivity
26 | QVQLVESGGGLVQAGGSLRLSCAASGIIFTDTAMGGYTQPPGKVRELVATISWSTDNTYYADSVKGRFTISRDNAKNTVYLQMNSLKPEDTAVYYCAAEEFYAYWYQSDYWGQGTQVTVSS | low polyreactivity
27 | QVQLVESGGGLVQAGGSLRLSCAASGIIFTGNAMGWYIQAPGKERELVAAITSGDTTNYADSVKGRFTISRDNAKNTVYLQMNSLKPEDSAVYYCAKELQVRQAGDYWGQGTQVTVSS | low polyreactivity
28 | QVQLVESGGGLVQAGGSLRLSCAASGIIFTGYAMGWYRQAPGKERELVAAISGSGGRTYYSDSVKGRFTISRDNAKNTVYLQMNSLKPEDTAVYYCAAYRVSDYDYWGQGTQVTVSS | high polyreactivity
29 | QVQLVESGGGLVQAGGSLRLSCAASGIIFTNYAMGWYRQAPGKERELVAAISSSSGTTYYADSVKGRFTISRDNAKNTDYLQMNSLKPEDTALYYCNAGRSWRRTHYDYWVQGTQVTVSS | high polyreactivity
30 | QVQLVESGGGLVQAGGSLRLSCAASGIIFTNYGMGWYRQAPGKERELGAVISRRGGSTYYADSVKGRFTISRDNAKNTVYLQMNSLKPEDTAVYYCNTRTQGAKQYTGYDYWGQGTQVTVSS | high polyreactivity
31 | QVQLVESGGGLVQAGGSLRLSCAASGIIFTNYSMGWYRQAPGKERELVAAISKGAGRTYYADSVKGRFTISRDNAKNTVYLQMNSLKPEDTAVYYCNKAKRSGGYPGVFSYDYWGQGTQVTVSS | high polyreactivity
32 | QVQLVESGGGLVQAGGSLRLSCAASGIIFTSYAMGWYRQAPGKEREFVAGISVRGSSTYYADSVKGRFTISRDNAKNTVYLQMNSLKAEDTAVYYCAARTPSRYLYYEYDYWGQGTQVTVSS | low polyreactivity
33 | QVQLVESGGGLVQAGGSLRLSCAASGIIFTTNAMGWYRQAPGKERELVATISTGGGTYYADSVKGRFTSSRDNAKNTVYLQMHSLKPEDTAVYYCAATPGWGPWIFDHSYVDFDYWGQGTQVTVSS | low polyreactivity
34 | QVQLVESGGGLVQAGGSLRLSCAASGIIFVAYAMGWYRPAPGKERELVAAITKSGVRTYYADSVKGRFTISRGNAKNTVYLQMNSLKPEDTAVYYCAADRGVGVYYWGQGTQATVSS | high polyreactivity
35 | QVQLVESGGGLVQAGGSLRLSCAASGIIFVEYAMGWYRQAPGKERELVARIRYSGGSTYYADSVKGRFTISRDNAKNTVYLQMNSLKPEDTAVYYCNALFPYIYDYWGQGTQVTVSS | low polyreactivity
36 | QVQLVESGGGLVQAGGSLRLSCAASGIIFVLYDMGWYRPAPGKERELVAAIDKSGGSTYYADSVKGRFTISRDNAKNTVYLQMNSLKPEDTAVYYCNARVVWRNPSYLKSSYDYWGQGTQVTVSS | low polyreactivity
37 | QVQLVESGGGLVQAGGSLRLSCAASGIIFVRNAMGWYRQAPGKERELVAAISRSGGSTYYADSVKGRFTISRDNAKNTVYLQMNSLKPEDTAVYYCAAVMRLSSGYDYWGQGTQVTVSS | high polyreactivity
38 | QVQLVESGGGLVQAGGSLRLSCAASGIIFVRNVMGWYRQAPGKERELVAAITNGGSTYYADSVKGRFTISRDNAKNTVYLQMNSLQPEDTAVYYCAALTGVRRRYYYWGQGTQVTVSS | high polyreactivity
39 | QVQLVESGGGLVQAGGSLRLSCAASGIIFVRYTMGWYRQAPGKERELVAAISSSGGSTYYADSVKGRFTISRDNAKNTVYLQMNSLKPEDTAVYYCNAEIRDNNVGYYTDYDYWGQGTQVTVSS | high polyreactivity
40 | QVQLVESGGGLVQAGGSLRLSCAASGIIFVSYAMGWYRQAPGKERELVAAITRRGSRTYYADSVKGRFTISRDNAKNTVYLQMNSLKPEDTAVYYCAADSQAARYHAYDYWGQGTQVTVSS | high polyreactivity
41 | QVQLVESGGGLVQAGGSLRLSCAASGIIFVSYAMGWYRQAPGKERELVADITSGGRTYYADSVKGRFTISRDNAKNTVYLQMNSLKPEDTAGYYCAATYSYKGRWVWVYYWGQGTQVTVSS | high polyreactivity
42 | QVQLVESGGGLVQAGGSLRLSCAASGIIFVVNDMGWYRQAPGKERELVADISDSGGSTNYADSVKGRFTISRDNAKNTVYLQMNSLKPEDTAVYYCNADGITSLPVPALDYWGQGTQVTVSS | low polyreactivity
43 | QVQLVESGGGLVQAGGSLRLSCAASGIIFVWNAMGWYRQAPGKERALVAAITNGGSTYYADSVKGRFTISRDNAKTTVYLQMTSLKPEETAVDYCHVRYFFRFRDDYWGQGTQVTVSS | low polyreactivity

From the nanobody polyreactivity screen of Harvey et al. (2022)
